B1: Partner and localizer of BRCA2 (Mus musculus), Q3U0P1 (parent)
chain: MEELSGKPLSYAEKEKLKEKLAFLKKEYSRTLARLQRAKRAEKAKNSKKAIEDGVPQPEASSQLSHSESINKGFPCDTLQSNHLDEETGENISQILDVEPQSFNCKQGKEVLHTPRAGDIQGQLLHSTSSPDGKKEQNTLPGTTKTPWEKSSVSQEKEDYFDTNSLALLGKHRKGQESISRKNSRTPVSEKTHLLSLRSQIPDPPALVTGIGEGILIPPSGKSERGIDTLVRGNTVSAEAAVPSCTASNSNHSQHLEHTPPKSGCKITTQGPASSTNLVAQDQKMTIFTVNSVVYKAVRAHGQLPGSPNSCSVNDLTHSNLPANSTPNSKSLKSPSNTVDERNEPLQEDEILGPSKNFNLAAVSPPSTESQIHSCTMLEGLLFPAEYYVRTTRRMSDCQRKIALEAVIQSHLGVKKKELKKKTKATKAVVLSSEDTDQSESGMLDTSTGQSSSGSLSQKLLSPAEVSSPPGPAGKATTPPPGRGHRGKRKSARTSTLGHCQLLFPPCAALAVNRSKGKFTKHKCQNRGVVIHDFELPDEDFGLLKLEKLKSCSEKLIESPDSKNCGERLPREGNHAALEELQRDSETEGLEEELTVPPGEAYRPGPTLRRQPGSKDLSSSIVLFTPADTAAPNDSGRPPPSLCSPAFPILGMTPALGSQAAGETLSTEAAQPCSTSQPPLLGDTNSLVNNSKQCNSSACSPKPDTNLQASGRQGQPACDSDSGPQATPLPVESFTFRENQLCGNACLELHEHSTEQTETADRPACDNLNPGNLQLVSELKNPSSSCSVDVSAMWWERAGAKEPCIVTACEDVVSLWKPLNSLQWEKVHTWHFTEVPVLQIVPVPDVYNLICVALGSLEIREIRALLCSSGDDSEKQVLLKSGDIKAMLGLTKRRLVSSTGTFCNQQIQIMTFADDGSSKDEQLLMPPDETVLTFAEVQGTQEALLGTTTVNSIVIWNLKTGQLLKKMHIDDSYQASVCHGAYSEKGLLFVVVSQPCAKESQALGSPVFQLLVINPKTAQSVGVLLCSLPQGQAGRFLEGDVKDHVAAAVLTSGTIAIWDLLLGHCTALLPPVSDQSWSLVKWSGTDSHLLAGQKDGNIFIYRYF

In this assay the parent is B1. The note with it: with brca1_human BRCA1, P38398.
Sequence of brca1_human BRCA1, P38398 (P38398 whole entry, looked up): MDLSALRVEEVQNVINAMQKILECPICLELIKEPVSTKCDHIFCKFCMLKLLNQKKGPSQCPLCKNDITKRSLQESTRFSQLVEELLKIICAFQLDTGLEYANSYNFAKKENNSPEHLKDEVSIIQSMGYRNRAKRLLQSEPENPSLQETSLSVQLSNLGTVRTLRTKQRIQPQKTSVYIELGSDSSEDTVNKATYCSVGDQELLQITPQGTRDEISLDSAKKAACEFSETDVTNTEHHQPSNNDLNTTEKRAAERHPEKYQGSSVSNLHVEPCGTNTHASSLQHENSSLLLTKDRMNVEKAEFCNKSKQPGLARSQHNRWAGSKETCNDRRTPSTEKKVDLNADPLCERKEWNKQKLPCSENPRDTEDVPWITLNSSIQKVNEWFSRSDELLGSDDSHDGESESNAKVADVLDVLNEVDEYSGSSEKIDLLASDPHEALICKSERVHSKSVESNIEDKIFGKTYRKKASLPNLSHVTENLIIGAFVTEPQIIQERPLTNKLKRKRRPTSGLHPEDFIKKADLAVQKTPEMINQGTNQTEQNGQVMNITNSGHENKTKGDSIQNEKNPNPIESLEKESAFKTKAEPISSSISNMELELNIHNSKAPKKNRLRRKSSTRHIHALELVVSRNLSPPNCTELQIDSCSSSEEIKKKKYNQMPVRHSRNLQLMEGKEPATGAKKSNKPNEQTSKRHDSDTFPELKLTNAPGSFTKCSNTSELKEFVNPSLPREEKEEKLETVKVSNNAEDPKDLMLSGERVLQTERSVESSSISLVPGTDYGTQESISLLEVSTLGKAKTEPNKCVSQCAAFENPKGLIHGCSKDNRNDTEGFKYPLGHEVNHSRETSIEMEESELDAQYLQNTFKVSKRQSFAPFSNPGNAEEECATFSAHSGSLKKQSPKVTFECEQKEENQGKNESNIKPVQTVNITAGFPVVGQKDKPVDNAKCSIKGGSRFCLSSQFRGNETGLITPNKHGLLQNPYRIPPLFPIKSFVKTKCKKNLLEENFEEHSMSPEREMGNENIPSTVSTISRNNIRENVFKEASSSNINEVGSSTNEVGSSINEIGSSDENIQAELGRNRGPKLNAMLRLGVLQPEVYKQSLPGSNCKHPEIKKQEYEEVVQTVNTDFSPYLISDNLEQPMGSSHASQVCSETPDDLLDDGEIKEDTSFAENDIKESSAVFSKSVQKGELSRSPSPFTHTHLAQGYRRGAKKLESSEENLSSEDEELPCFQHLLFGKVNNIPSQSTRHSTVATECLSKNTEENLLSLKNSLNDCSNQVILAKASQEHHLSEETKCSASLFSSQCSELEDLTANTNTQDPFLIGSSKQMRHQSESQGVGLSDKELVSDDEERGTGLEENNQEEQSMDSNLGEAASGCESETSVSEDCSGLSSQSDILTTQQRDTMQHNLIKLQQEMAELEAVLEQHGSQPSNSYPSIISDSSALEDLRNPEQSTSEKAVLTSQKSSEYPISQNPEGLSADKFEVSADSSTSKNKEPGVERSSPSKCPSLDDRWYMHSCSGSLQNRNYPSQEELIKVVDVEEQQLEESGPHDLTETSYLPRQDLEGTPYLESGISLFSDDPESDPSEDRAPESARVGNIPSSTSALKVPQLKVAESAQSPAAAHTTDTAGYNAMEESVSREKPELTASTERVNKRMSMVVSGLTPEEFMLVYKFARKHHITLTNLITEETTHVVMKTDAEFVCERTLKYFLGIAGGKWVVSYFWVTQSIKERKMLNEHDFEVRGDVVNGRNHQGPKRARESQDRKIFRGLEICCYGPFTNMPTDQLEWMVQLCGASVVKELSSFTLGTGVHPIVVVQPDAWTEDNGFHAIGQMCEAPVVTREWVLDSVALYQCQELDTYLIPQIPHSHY
K18R: the “effect of a mutation on the interaction” value is given as “with no effect”.
Consider R37H, for which the “effect of a mutation on the interaction” value is “with no effect”.
For Y28C the value was “disrupting interaction”; for L35P, “disrupting interaction”.

(Values after IntAct's records for PubMed 28319063.)
